Target: T1, eIF3c/NIP1 (S. cerevisiae, UniProt P32497 1-812)
T1 construct: eIF3c/NIP1 subunit of yeast eIF3; 50 ug = 0.5 nmol (about 100 kDa) fits a whole protein (surmise); source: purified
Assay: ITC; VP-ITC; 100 uM a/TIF32^276-494 injected in 20 ul aliquots into the cell with 10 uM c/NIP1; 150 mM KCl, 10 mM Hepes pH 7.5, 5% glycerol
Conditions: both partners purified

T1 sequence (P32497 whole entry): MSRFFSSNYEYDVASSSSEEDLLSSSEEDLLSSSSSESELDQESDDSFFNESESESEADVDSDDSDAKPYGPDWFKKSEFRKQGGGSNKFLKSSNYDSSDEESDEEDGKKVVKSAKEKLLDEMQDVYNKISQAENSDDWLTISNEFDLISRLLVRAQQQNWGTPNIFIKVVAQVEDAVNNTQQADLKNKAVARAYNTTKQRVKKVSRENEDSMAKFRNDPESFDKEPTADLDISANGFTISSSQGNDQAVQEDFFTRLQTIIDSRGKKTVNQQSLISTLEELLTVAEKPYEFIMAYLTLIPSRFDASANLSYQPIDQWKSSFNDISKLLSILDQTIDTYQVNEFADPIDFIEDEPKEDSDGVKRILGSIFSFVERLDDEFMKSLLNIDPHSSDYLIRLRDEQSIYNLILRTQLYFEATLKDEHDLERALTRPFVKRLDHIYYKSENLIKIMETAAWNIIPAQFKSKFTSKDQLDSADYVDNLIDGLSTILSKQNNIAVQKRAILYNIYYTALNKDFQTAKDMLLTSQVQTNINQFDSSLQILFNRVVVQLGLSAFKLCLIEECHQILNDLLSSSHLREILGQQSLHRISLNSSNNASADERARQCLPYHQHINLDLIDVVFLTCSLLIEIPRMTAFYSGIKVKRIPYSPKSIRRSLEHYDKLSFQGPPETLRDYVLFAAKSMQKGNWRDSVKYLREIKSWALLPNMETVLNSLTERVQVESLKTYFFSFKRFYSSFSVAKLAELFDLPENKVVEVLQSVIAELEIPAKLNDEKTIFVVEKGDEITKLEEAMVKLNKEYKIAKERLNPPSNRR

B1: a/TIF32^276-494 (PCI domain of eIF3a/TIF32) (domain or fragment, S. cerevisiae, UniProt P38249 276-494, looked up)
chain: PSTLANYYENLVKVFFVSGDPLLHTTAWKKFYKLYSTNPRATEEEFKTYSSTIFLSAISTQLDEIPSIGYDPHLRMYRLLNLDAKPTRKEMLQSIIEDESIYGKVDEELKELYDIIEVNFDVDTVKQQLENLLVKLSSKTYFSQYIAPLRDVIMRRVFVAASQKFTTVSQSELYKLATLPAPLDLSAWDIEKSLLQAAVEDYVSITIDHESAKVTFAKD
notes: Detailed purification scheme is in Supplementary Methods; also called a/TIF32-PCI; a/TIF32 PCI domain
For B1, the Kd was 158 nM, the dH was -10.2 kcal/mol and the “stoichiometry N” value was 0.944.

Reference: article PMC3973348, “Structural integrity of the PCI domain of eIF3a/TIF32 is required for mRNA recruitment to the 43S pre-initiation complexes” (Nucleic Acids Research, 2014)
